Assay results from the supplement of paper PMC5998384.

Legend:
[1] = system: HeLa Kyoto; experiment: melting temperature (median over replicates), in situ; higher = more thermally stable
[2] = system: HeLa Kyoto; experiment: thermal stability score vs G1/S (z-score of summed log2 fold changes over temperatures); higher = more thermally stable than in G1/S
[3] = system: HeLa Kyoto; experiment: solubility in G1/S (NP-40 vs SDS abundance) (log2 ratio); higher = more soluble; settings: cell cycle stage: G1/S
[4] = system: HeLa Kyoto; experiment: solubility change mitosis vs G1/S (difference of NP-40 vs SDS log2 ratios) (log2 ratio difference); higher = more soluble in mitosis
[5] = cell cycle stage: early G1 (4.5 h after nocodazole release)
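Throughout, for melting temperature (median over replicates), in situ: HeLa Kyoto cells synchronized by double thymidine or nocodazole block, proteins quantified by TMT10plex mass spectrometry, three independent biological replicates.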
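Throughout, for solubility change mitosis vs G1/S (difference of NP-40 vs SDS log2 ratios): synchronized HeLa Kyoto cells (double thymidine block for G1/S, nocodazole release for mitosis), protein amounts in NP-40 versus SDS lysates quantified by mass spectrometry, three biological replicates.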
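Throughout, for solubility in G1/S (NP-40 vs SDS abundance): HeLa Kyoto cells arrested at G1/S by double thymidine block, proteins quantified by TMT10plex mass spectrometry in mild NP-40 versus SDS extracts, three biological replicates.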
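Throughout, for thermal stability score vs G1/S (z-score of summed log2 fold changes over temperatures): synchronized HeLa Kyoto cells, proteins quantified by TMT10plex mass spectrometry, three biological replicates, mitosis taken 0.5 h after nocodazole release, G1/S directly after double thymidine block.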

Chain of C5ORF22 (chain, as listed by the source): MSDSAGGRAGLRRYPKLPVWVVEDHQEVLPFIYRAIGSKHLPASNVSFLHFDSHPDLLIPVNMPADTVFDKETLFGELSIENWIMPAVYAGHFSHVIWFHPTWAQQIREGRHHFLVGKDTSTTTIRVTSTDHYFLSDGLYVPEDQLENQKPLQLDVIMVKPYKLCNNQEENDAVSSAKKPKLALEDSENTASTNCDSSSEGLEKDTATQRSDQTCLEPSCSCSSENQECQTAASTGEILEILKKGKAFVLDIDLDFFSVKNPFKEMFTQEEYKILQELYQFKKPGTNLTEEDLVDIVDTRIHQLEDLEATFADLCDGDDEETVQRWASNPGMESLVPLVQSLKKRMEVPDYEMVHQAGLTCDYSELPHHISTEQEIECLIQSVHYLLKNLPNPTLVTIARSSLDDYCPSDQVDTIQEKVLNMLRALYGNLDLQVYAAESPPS
Chain of LIMD1 (chain, as listed by the source): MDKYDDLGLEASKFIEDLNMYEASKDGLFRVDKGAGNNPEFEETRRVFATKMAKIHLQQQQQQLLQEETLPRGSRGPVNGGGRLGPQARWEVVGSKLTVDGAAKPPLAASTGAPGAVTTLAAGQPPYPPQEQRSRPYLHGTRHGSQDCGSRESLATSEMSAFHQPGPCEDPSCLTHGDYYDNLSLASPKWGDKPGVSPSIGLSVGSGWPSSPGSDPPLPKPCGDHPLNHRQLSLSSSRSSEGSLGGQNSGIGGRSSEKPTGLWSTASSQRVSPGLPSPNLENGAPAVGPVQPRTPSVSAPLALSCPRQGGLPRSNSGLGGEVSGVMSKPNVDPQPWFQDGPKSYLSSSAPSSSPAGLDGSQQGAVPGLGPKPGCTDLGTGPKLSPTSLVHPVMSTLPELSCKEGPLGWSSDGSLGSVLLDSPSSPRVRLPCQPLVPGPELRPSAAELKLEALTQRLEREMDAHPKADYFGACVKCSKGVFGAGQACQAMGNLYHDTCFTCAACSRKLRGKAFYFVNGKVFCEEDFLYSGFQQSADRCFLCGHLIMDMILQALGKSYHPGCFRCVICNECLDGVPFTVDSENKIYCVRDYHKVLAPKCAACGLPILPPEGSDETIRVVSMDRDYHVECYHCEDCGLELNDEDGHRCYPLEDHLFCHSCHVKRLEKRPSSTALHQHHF
Chain of TSC2 (chain, as listed by the source): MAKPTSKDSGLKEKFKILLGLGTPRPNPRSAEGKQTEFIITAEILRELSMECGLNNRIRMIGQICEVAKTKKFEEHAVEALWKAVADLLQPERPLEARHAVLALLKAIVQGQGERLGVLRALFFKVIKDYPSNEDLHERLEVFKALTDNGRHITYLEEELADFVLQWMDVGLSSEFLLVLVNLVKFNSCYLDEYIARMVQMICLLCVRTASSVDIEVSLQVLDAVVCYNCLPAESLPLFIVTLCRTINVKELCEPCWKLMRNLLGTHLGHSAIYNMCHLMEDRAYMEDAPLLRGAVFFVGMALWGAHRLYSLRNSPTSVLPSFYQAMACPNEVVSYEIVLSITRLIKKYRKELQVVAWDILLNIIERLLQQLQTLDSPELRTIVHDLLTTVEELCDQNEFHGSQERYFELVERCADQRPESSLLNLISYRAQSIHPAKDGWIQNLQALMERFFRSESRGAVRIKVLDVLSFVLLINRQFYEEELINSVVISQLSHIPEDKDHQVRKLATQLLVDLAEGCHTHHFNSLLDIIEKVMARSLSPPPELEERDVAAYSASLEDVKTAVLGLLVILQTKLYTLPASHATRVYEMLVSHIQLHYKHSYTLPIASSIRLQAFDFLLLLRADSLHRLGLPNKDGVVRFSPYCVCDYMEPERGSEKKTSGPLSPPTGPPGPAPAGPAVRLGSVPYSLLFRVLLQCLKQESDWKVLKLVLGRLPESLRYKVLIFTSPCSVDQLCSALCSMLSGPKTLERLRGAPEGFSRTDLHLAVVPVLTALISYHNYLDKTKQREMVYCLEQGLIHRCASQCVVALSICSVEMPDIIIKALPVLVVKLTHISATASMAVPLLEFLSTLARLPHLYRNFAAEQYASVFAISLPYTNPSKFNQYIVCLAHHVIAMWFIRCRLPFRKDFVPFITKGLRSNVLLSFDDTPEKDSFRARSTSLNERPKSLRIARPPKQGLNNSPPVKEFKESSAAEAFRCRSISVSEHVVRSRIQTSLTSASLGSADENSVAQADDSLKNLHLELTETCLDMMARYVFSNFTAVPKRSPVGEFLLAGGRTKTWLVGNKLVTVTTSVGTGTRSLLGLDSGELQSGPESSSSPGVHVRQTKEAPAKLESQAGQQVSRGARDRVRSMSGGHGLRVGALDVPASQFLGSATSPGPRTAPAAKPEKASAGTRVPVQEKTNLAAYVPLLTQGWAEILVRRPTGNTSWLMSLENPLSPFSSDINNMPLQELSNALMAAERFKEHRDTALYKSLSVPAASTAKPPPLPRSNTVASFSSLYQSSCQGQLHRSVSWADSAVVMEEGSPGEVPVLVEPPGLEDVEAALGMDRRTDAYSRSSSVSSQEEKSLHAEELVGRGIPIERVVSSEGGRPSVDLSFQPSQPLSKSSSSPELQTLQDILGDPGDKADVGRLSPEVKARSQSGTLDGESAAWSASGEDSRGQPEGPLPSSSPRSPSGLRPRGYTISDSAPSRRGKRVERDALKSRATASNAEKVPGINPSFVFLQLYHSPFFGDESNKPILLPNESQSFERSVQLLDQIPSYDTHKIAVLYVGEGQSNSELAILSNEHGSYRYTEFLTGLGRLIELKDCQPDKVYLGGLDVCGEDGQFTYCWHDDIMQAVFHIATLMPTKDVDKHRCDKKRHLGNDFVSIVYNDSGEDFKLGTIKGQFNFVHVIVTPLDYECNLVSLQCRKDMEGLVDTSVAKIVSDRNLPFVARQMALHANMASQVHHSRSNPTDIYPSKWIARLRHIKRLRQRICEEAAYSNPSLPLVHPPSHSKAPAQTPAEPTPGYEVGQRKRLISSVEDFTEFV

Row | Substance | melting temperature ([1]; cell cycle stage: G1/S) | melting temperature ([1]; cell cycle stage: mitosis) | thermal stability score [2, 5] | thermal stability score ([2]; cell cycle stage: mitosis) | solubility in G1/S (log2) [3] | solubility change mitosis (log2) [4]
1 | MDLSELERDNTGRCRLSSPVPAVCRKEPCVLGVDEAGRGPVLGPMVYAICYCPLPRLADLEALKVADSKTLLESERERLFAKMEDTDFVGWALDVLSPNLISTSMLGRVKYNLNSLSHDTATGLIQYALDQGVNVTQVFVDTVGMPETYQARLQQSFPGIEVTVKAKADALYPVVSAASICAKVARDQAVKKWQFVEKLQDLDTDYGSGYPNDPKTKAWLKEHVEPVFGFPQFVRFSWRTAQTILEKEAEDVIWEDSASENQEGLRKITSYFLNEGSQARPRSSHRYFLERGLESATSL [RNASEH2A] | 49.9 °C | 50.5 °C | 0.166 | 0.422 | 0.206 | -0.012
2 | CAMSAP1 | 50.4 °C | 50.2 °C | -0.2 | 0.324 | -0.149 | 0.0139
3 | MNLFNLDRFRFEKRNKIEEAPEATPQPSQPGPSSPISLSAEEENAEGEVSRANTPDSDITEKTEDSSVPETPDNERKASISYFKNQRGIQYIDLSSDSEDVVSPNCSNTVQEKTFNKDTVIIVSEPSEDEESQGLPTMARRNDDISELEDLSELEDLKDAKLQTLKELFPQRSDNDLLKLIESTSTMDGAIAAALLMFGDAGGGPRKRKLSSSSEPYEEDEFNDDQSIKKTRLDHGEESNESAESSSNWEKQESIVLKLQKEFPNFDKQELREVLKEHEWMYTEALESLKVFAEDQDMQYVSQSEVPNGKEVSSRSQNYPKNATKTKLKQKFSMKAQNGFNKKRKKNVFNPKRVVEDSEYDSGSDVGSSLDEDYSSGEEVMEDGYKGKILHFLQDASIGELTLIPQCSQKKAQKITELRPFNSWEALFTKMSKTNGLSEDLIWHCKTLIQERDVVIRLMNKCEDISNKLTKQVTMLTGNGGGWNIEQPSILNQSLSLKPYQKVGLNWLALVHKHGLNGILADEMGLGKTIQAIAFLAYLYQEGNNGPHLIVVPASTIDNWLREVNLWCPTLKVLCYYGSQEERKQIRFNIHSRYEDYNVIVTTYNCAISSSDDRSLFRRLKLNYAIFDEGHMLKNMGSIRYQHLMTINANNRLLLTGTPVQNNLLELMSLLNFVMPHMFSSSTSEIRRMFSSKTKSADEQSIYEKERIAHAKQIIKPFILRRVKEEVLKQLPPKKDRIELCAMSEKQEQLYLGLFNRLKKSINNLEKNTEMCNVMMQLRKMANHPLLHRQYYTAEKLKEMSQLMLKEPTHCEANPDLIFEDMEVMTDFELHVLCKQYRHINNFQLDMDLILDSGKFRVLGCILSELKQKGDRVVLFSQFTMMLDILEVLLKHHQHRYLRLDGKTQISERIHLIDEFNTDMDIFVFLLSTKAGGLGINLTSANVVILHDIDCNPYNDKQAEDRCHRVGQTKEVLVIKLISQGTIEESMLKINQQKLKLEQDMTTVDEGDEGSMPADIATLLKTSMGL [SMARCAD1] | 48.4 °C | 49.7 °C | 2.18 | 3.89 | -0.1 | -0.124
4 | MRSIRSFANDDRHVMVKHSTIYPSPEELEAVQNMVSTVECALKHVSDWLDETNKGTKTEGETEVKKDEAGENYSKDQGGRTLCGVMRIGLVAKGLLIKDDMDLELVLMCKDKPTETLLNTVKDNLPIQIQKLTEEKYQVEQCVNEASIIIRNTKEPTLTLKVILTSPLIRDELEKKDGENVSMKDPPDLLDRQKCLNALASLRHAKWFQARANGLKSCVIVLRILRDLCNRVPTWAPLKGWPLELICEKSIGTCNRPLGAGEALRRVMECLASGILLPGGPGLHDPCERDPTDALSYMTIQQKEDITHSAQHALRLSAFGQIYKVLEMDPLPSSKPFQKYSWSVTDKEGAGSSALKRPFEDGLGDDKDPNKKMKRNLRKILDSKAIDLMNALMRLNQIRPGLQYKLLSQSGPVHAPVFTMSVDVDGTTYEASGPSKKTAKLHVAVKVLQAMGYPTGFDADIECMSSDEKSDNESKNETVSSNSSNNTGNSTTETSSTLEVRTQGPILTASGKNPVMELNEKRRGLKYELISETGGSHDKRFVMEVEVDGQKFRGAGPNKKVAKASAALAALEKLFSGPNAANNKKKKIIPQAKGVVNTAVSAAVQAVRGRGRGTLTRGAFVGATAAPGYIAPGYGTPYGYSTAAPAYGLPKRMVLLPVMKFPTYPVPHYSFF [STRBP] | 50.5 °C | 52.5 °C | -0.506 | -0.00226 | -0.314 | -0.0522
5 | TSC2 | 49.6 °C | 50.9 °C | 0.00265 | 0.786 | -0.16 | -0.0844
6 | MEGGLGRAVCLLTGASRGFGRTLAPLLASLLSPGSVLVLSARNDEALRQLEAELGAERSGLRVVRVPADLGAEAGLQQLLGALRELPRPKGLQRLLLINNAGSLGDVSKGFVDLSDSTQVNNYWALNLTSMLCLTSSVLKAFPDSPGLNRTVVNISSLCALQPFKGWALYCAGKAARDMLFQVLALEEPNVRVLNYAPGPLDTDMQQLARETSVDPDMRKGLQELKAKGKLVDCKVSAQKLLSLLEKDEFKSGAHVDFYDK [SPR] | 53.8 °C | 52.3 °C | -5.72 | -2.25 | 0.0864 | -0.117
7 | MSGTSSHESFYDSLSDMQEESKNTDFFPGLSAFLSQEEINKSLDLARRAIADSETEDFDSEKEISQIFSTSPASLCEHPSHKETKLGEHASRRPQDNRSTPVQPLAEKQTKSISSPVSKRKPAMSPLLTRPSYIRSLRKAEKRGAKTPSTNVKPKTPHQRKGGPQSQLCDKAANLIEELTSIFKAAKPRNRSPNGESSSPDSGYLSPKNQPSALLSASASQSPMEDQGEMEREVKSPGARHCYQDNQDLAVPHNRKSHPQPHSALHFPAAPRFIQKLRSQEVAEGSRVYLECRVTGNPTPRVRWFCEGKELHNTPDIQIHCEGGDLHTLIIAEAFEDDTGRYTCLATNPSGSDTTSAEVFIEGASSTDSDSESLAFKSRAGAMPQAQKKTTSVSLTIGSSSPKTGVTTAVIQPLSVPVQQVHSPTSYLCRPDGTTTAYFPPVFTKELQNTAVAEGQVVVLECRVRGAPPLQVQWFRQGSEIQDSPDFRILQKKPRSTAEPEEICTLVIAETFPEDAGIFTCSARNDYGSATSTAQLVVTSANTENCSYESMGESNNDHFQHFPPPPPILETSSLELASKKPSEIQQVNNPELGLSRAALQMQFNAAERETNGVHPSRGVNGLINGKANSNKSLPTPAVLLSPTKEPPPLLAKPKLDPLKLQQLQNQIRLEQEAGARQPPPAPRSAPPSPPFPPPPAFPELAACTPPASPEPMSALASRSAPAMQSSGSFNYARPKQFIAAQNLGPASGHGTPASSPSSSSLPSPMSPTPRQFGRAPVPPFAQPFGAEPEAPWGSSSPSPPPPPPPVFSPTAAFPVPDVFPLPPPPPPLPSPGQASHCSSPATRFGHSQTPAAFLSALLPSQPPPAAVNALGLPKGVTPAGFPKKASRTARIASDEEIQGTKDAVIQDLERKLRFKEDLLNNGQPRLTYEERMARRLLGADSATVFNIQEPEEETANQEYKVSSCEQRLISEIEYRLERSPVDESGDEVQYGDVPVENGMAPFFEMKLKHYKIFEGMPVTFTCRVAGNPKPKIYWFKDGKQISPKSDHYTIQRDLDGTCSLHTTASTLDDDGNYTIMAANPQGRISCTGRLMVQAVNQRGRSPRSPSGHPHVRRPRSRSRDSGDENEPIQERFFRPHFLQAPGDLTVQEGKLCRMDCKVSGLPTPDLSWQLDGKPVRPDSAHKMLVRENGVHSLIIEPVTSRDAGIYTCIATNRAGQNSFSLELVVAAKEAHKPPVFIEKLQNTGVADGYPVRLECRVLGVPPPQIFWKKENESLTHSTDRVSMHQDNHGYICLLIQGATKEDAGWYTVSAKNEAGIVSCTARLDVYTQWHQQSQSTKPKKVRPSASRYAALSDQGLDIKAAFQPEANPSHLTLNTALVESEDL [PALLD] | 50 °C | 50.5 °C | 1.21 | 3.53 | 0.0775 | -0.0539
8 | MTSKQAMSSNEQERLLCYNGEVLVFQLSKGNFADKEPTKTPILHVRRMVFDRGTKVFVQKSTGFFTIKEENSHLKIMCCNCVSDFRTGINLPYIVIEKNKKNNVFEYFLLILHSTNKFEMRLSFKLGYEMKDGLRVLNGPLILWRHVKAFFFISSQTGKVVSVSGNFSSIQWAGEIENLGMVLLGLKECCLSEEECTQEPSKSDYAIWNTKFCVYSLESQEVLSDIYIIPPAYSSVVTYVHICATEIIKNQLRISLIALTRKNQLISFQNGTPKNVCQLPFGDPCAVQLMDSGGGNLFFVVSFISNNACAVWKESFQVAAKWEKLSLVLIDDFIGSGTEQVLLLFKDSLNSDCLTSFKITDLGKINYSSEPSDCNEDDLFEDKQENRYLVVPPLETGLKVCFSSFRELRQHLLLKEKIISKSYKALINLVQGKDDNTSSAEEKECLVPLCGEEENSVHILDEKLSDNFQDSEQLVEKIWYRVIDDSLVVGVKTTSSLKLSLNDVTLSLLMDQAHDSRFRLLKCQNRVIKLSTNPFPAPYLMPCEIGLEAKRVTLTPDSKKEESFVCEHPSKKECVQIITAVTSLSPLLTFSKFCCTVLLQIMERESGNCPKDRYVVCGRVFLSLEDLSTGKYLLTFPKKKPIEHMEDLFALLAAFHKSCFQITSPGYALNSMKVWLLEHMKCEIIKEFPEVYFCERPGSFYGTLFTWKQRTPFEGILIIYSRNQTVMFQCLHNLIRILPINCFLKNLKSGSENFLIDNMAFTLEKELVTLSSLSSAIAKHESNFMQRCEVSKGKSSVVAAALSDRRENIHPYRKELQREKKKMLQTNLKVSGALYREITLKVAEVQLKSDFAAQKLSNL [FANCB] | 53.7 °C | 53.8 °C | 1.37 | 0.274 | -0.208 | -0.0928
9 | MATSAPLRSLEEEVTCSICLDYLRDPVTIDCGHVFCRSCTTDVRPISGSRPVCPLCKKPFKKENIRPVWQLASLVENIERLKVDKGRQPGEVTREQQDAKLCERHREKLHYYCEDDGKLLCVMCRESREHRPHTAVLMEKAAQPHREKILNHLSTLRRDRDKIQGFQAKGEADILAALKKLQDQRQYIVAEFEQGHQFLREREEHLLEQLAKLEQELTEGREKFKSRGVGELARLALVISELEGKAQQPAAELMQDTRDFLNRYPRKKFWVGKPIARVVKKKTGEFSDKLLSLQRGLREFQGKLLRDLEYKTVSVTLDPQSASGYLQLSEDWKCVTYTSLYKSAYLHPQQFDCEPGVLGSKGFTWGKVYWEVEVEREGWSEDEEEGDEEEEGEEEEEEEEAGYGDGYDDWETDEDEESLGDEEEEEEEEEEEVLESCMVGVARDSVKRKGDLSLRPEDGVWALRLSSSGIWANTSPEAELFPALRPRRVGIALDYEGGTVTFTNAESQELIYTFTATFTRRLVPFLWLKWPGTRLLLRP [TRIM26] | 51.2 °C | – | 0.882 | 3.9 | -1.13 | -0.225
10 | WBSCR16 | 53.6 °C | 52.7 °C | 0.481 | -0.564 | -0.259 | -0.168
11 | C5ORF22 | 50.7 °C | – | -0.108 | 1.41 | 0.303 | -0.166
12 | MGRCCFYTAGTLSLLLLVTSVTLLVARVFQKAVDQSIEKKIVLRNGTEAFDSWEKPPLPVYTQFYFFNVTNPEEILRGETPRVEEVGPYTYRELRNKANIQFGDNGTTISAVSNKAYVFERDQSVGDPKIDLIRTLNIPVLTVIEWSQVHFLREIIEAMLKAYQQKLFVTHTVDELLWGYKDEILSLIHVFRPDISPYFGLFYEKNGTNDGDYVFLTGEDSYLNFTKIVEWNGKTSLDWWITDKCNMINGTDGDSFHPLITKDEVLYVFPSDFCRSVYITFSDYESVQGLPAFRYKVPAEILANTSDNAGFCIPEGNCLGSGVLNVSICKNGAPIIMSFPHFYQADERFVSAIEGMHPNQEDHETFVDINPLTGIILKAAKRFQINIYVKKLDDFVETGDIRTMVFPVMYLNESVHIDKETASRLKSMINTTLIITNIPYIIMALGVFFGLVFTWLACKGQGSMDEGTADERAPLIRT [SCARB2] | 58.5 °C | 60.2 °C | -2.37 | -3.51 | 0.3 | -0.119
13 | UGGT2 | 54 °C | 54.1 °C | 2.37 | 4.53 | -0.222 | -0.15
14 | LIMD1 | 51.8 °C | 51.9 °C | 0.183 | -0.541 | 0.148 | -0.126
